The term stoichiometry N denotes the number of molecules, sites or subunits per partner or assembly.

For the assay, the target named is FHA domain of human kanadaptin (residues 149-276) (human) (UniProt Q9BWU0). Briefly: crystal structure; crystals from 1.6 M ammonium sulfate, 0.1 M citric acid pH 5.0, 277 K; space group P2(1)2(1)2(1); tag removed; one homodimer in the asymmetric unit.

As for “FHA domain of human kanadaptin (residues 149-276) (from UniProt Q9BWU0 149-276) (domain or fragment)”, the stoichiometry N was determined as 2.

For the origin of these results see paper PMC4157861.
